Substitutions are numbered along the chain they refer to. Where two headings read alike, the source gives them in different places.
Assays:
[1] = molecular target: T1, human CD6 domains 1-3 plus stalk fused to rat CD4 domains 3 and 4 (CD6 d1-3S, wild type, S351) (human, UniProt P30203 18-402, biotin on the tag (immobilisation to streptavidin, Figure S1)); test: SPR; BIAcore 3000; CD6-CD4d3+4 chimeras (d1-3S, d2-3S, d3S) immobilised via the biotin tag to streptavidin, rat CD4 d3+4 in the control flow cell; soluble CD166 VVC injected, top 1.0 μM plus nine two-fold dilutions; 37 °C, HBS-EP, 20 μl/min; equilibrium binding, Langmuir 1:1 fit; conditions: one partner purified
T1 construct: also called CD6-CD4d3+4; CD6 WT; not shown: rat CD4 domains 3 and 4 (CD4d3+4), C-terminal, kept
T1 sequence (looked up): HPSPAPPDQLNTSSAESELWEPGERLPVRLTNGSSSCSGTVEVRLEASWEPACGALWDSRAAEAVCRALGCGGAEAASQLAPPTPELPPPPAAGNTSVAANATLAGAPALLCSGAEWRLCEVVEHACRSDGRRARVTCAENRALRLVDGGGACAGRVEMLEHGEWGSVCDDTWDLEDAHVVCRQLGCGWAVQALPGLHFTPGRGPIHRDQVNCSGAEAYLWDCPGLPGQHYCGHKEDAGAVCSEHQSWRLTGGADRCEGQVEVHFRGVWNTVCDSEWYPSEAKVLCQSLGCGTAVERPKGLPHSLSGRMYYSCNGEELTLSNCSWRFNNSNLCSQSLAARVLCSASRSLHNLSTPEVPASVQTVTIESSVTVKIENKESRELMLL

[2] = molecular target: human CD6 domains 2-3 plus stalk fused to rat CD4 domains 3 and 4 (CD6 d2-3S) (human) (UniProt P30203); test: as above
[3] = molecular target: human CD6 domain 3 plus stalk fused to rat CD4 domains 3 and 4 (CD6 d3S) (human) (UniProt P30203); test: as above
[4] = molecular target: human CD6 domains 2-3 plus stalk fused to rat CD4 domains 3 and 4 (CD6 d2-3S) (human) (UniProt P30203); test: as above; remark: listed apart in the source
[5] = molecular target: human CD6 domain 3 plus stalk fused to rat CD4 domains 3 and 4 (CD6 d3S) (human) (UniProt P30203); test: as above; remark: listed apart in the source
[6] = molecular target: T1, human CD6 domains 1-3 plus stalk fused …; test: SPR; BIAcore 3000; CD6 S351, S351A and S351N (CD4d3+4 chimeras) immobilised via OX68 mAb, rat CD4 d3+4 in the control flow cell; soluble CD166 VVC injected, top 2.5 μM plus nine two-fold dilutions; 25 °C, HBS-EP, 20 μl/min; KD from equilibrium binding (Langmuir 1:1), koff from one phase exponential decay; conditions: one partner purified
[7] = molecular target: T2, human CD6-CD4d3+4 chimera, SNP variant S351N (human, UniProt P30203 18-402, S351N, N-linked glycosylation at N351 (shown by mass spectrometry)); test: as above; conditions: one partner purified
T2 construct: human CD6 extracellular region with the membrane proximal stalk, as Dm2; S351N is a SNP found in 10% of the genomes analyzed; The 293T cells and the purification with OX68-Sepharose are told for the sample used in the glycosylation mass spectrometry; also called CD6 S351N; CD6-CD4d3+4 S351N; source: transiently expressed in 293T cells; not shown: rat CD4 domains 3 and 4 (CD4d3+4), C-terminal, kept
T2 sequence (looked up): T1 sequence (looked up) with S334N

[8] = molecular target: T3, human CD6-CD4d3+4 chimera, mutant S351A (human, UniProt P30203 18-402, S351A); test: as above; conditions: one partner purified
T3 construct: human CD6 extracellular region with the membrane proximal stalk, as Dm2; also called CD6 S351A; source: mutant made with a Q5 SDM kit; not shown: rat CD4 domains 3 and 4 (CD4d3+4), C-terminal, kept
T3 sequence (looked up): T1 sequence (looked up) with S334A

[9] = molecular target: T1, human CD6 domains 1-3 plus stalk fused …; test: as above; conditions: one partner purified; remark: listed apart in the source
[10] = molecular target: T2, human CD6-CD4d3+4 chimera, SNP variant …; test: as above; conditions: one partner purified; remark: listed apart in the source
[11] = molecular target: T3, human CD6-CD4d3+4 chimera, mutant S351A; test: as above; conditions: one partner purified; remark: listed apart in the source
[12] = molecular target: the molecule itself; test: SEC-MALS; Superdex200 10/30 in 50 mM Tris.HCl, pH 7.5, 150 mM NaCl, 0.4 ml/min; CD6 alone 39 µM, CD166 VVC alone 28 µM, equimolar mixture 27 µM each; samples diluted approximately 10-fold on the column
[13] = molecular target: T1, human CD6 domains 1-3 plus stalk fused …; test: SPR; BIAcore 3000; CD6-CD4d3+4 chimeras (d1-3S, d2-3S, d3S) immobilised via the biotin tag to streptavidin, rat CD4 d3+4 in the control flow cell; soluble CD166 VVC injected, top 1.0 μM plus nine two-fold dilutions; 37 °C, HBS-EP, 20 μl/min; equilibrium binding, Langmuir 1:1 fit; conditions: one partner purified; remark: listed apart in the source
[14] = molecular target: T4, human CD6 S351N (SNP variant) (human, UniProt P30203 18-668, S351N, N-linked glycan at N351; N28, N49, N229 glycosylated, N339 appears partially glycosylated); test: SPR; soluble CD166 VVC over streptavidin-immobilized chimeric CD6 forms and variants; conditions: both partners purified
T4 construct: human CD6 with the SNP S351N, found in 10% of the genomes analyzed; made by mutagenesis; Probably the same chimeric, streptavidin-immobilized format as m3 (surmised); construct in the supplement
T4 sequence (looked up): T1 sequence (looked up) with S334N

[15] = molecular target: the molecule itself; test: native MS; each protein alone at 20 μM; buffer exchanged into 250 mM ammonium acetate pH 7.6; dimer to monomers

B1: soluble recombinant human CD166 VVC (IgSF domains 1-3, two V-like domains and one C-like domain), His-tagged (domain or fragment, UniProt Q13740 28-335, looked up)
chain: WYTVNSAYGDTIIIPCRLDVPQNLMFGKWKYEKPDGSPVFIAFRSSTKKSVQYDDVPEYKDRLNLSENYTLSISNARISDEKRFVCMLVTEDNVFEAPTIVKVFKQPSKPEIVSKALFLETEQLKKLGDCISEDSYPDGNITWYRNGKVLHPLEGAVVIIFKKEMDPVTQLYTMTSTLEYKTTKADIQMPFTCSVTYYGPSGQKTIHSEQAVFDIYYPTEQVTIQVLPPKNAIKEGDNITLKCLGNGNPPPEEFLFYLPGQPEGIRSSNTYTLTDVRRNATGDYKCSLIDKKSMIASTAITVHYLDLS
notes: signal peptide in the construct; human CD166 (ALCAM) residues 1-335 with the native leader; Deglycosylated with EndoHf only for crystallization; also called ALCAM; source: purified (NiNTA, Superdex200)
Kd [1]: 90 nM | Kd [2]: 81 nM | Kd [3]: 86 nM | Kd [4]: 90 nM | Kd [5]: 100 nM | Kd [6]: 90 nM | koff [6]: 0.07 s⁻¹ | Kd [7]: 500 nM | koff [7]: 0.4 s⁻¹ | Kd [8]: 60 nM | koff [8]: 0.05 s⁻¹ | Kd [9]: 120 nM | koff [9]: 0.072 s⁻¹ | Kd [10]: 599 nM | koff [10]: 0.337 s⁻¹ | Kd [11]: 83 nM | koff [11]: 0.049 s⁻¹ | stoichiometry N [12]: 2 | Kd [13]: 77 nM

B2: human CD166 IgSF domains 1-3 (CD166 VVC), His-tagged (residues 1-335) (domain or fragment, UniProt Q13740 28-335, looked up)
chain: B1 chain
modifications: N-linked glycans (endoglycosidase H sensitive; heterogeneity in mass caused by glycosylation)
notes: signal peptide in the construct; In the crystal (PDB 5a2f) only domains 1 and 2 were resolved; the third domain was probably cleaved off before crystal growth; protein deglycosylated with EndoHf for crystallization; also called ALCAM; source: purified (NiNTA, Superdex200)
fold weaker affinity than for CD6 S351 [14]: 10 fold | stoichiometry N [15]: 2

B3: human CD6 SRCR domains 1-3, His-tagged (residues 1-364) (domain or fragment, UniProt P30203 18-364, looked up)
chain: HPSPAPPDQLNTSSAESELWEPGERLPVRLTNGSSSCSGTVEVRLEASWEPACGALWDSRAAEAVCRALGCGGAEAASQLAPPTPELPPPPAAGNTSVAANATLAGAPALLCSGAEWRLCEVVEHACRSDGRRARVTCAENRALRLVDGGGACAGRVEMLEHGEWGSVCDDTWDLEDAHVVCRQLGCGWAVQALPGLHFTPGRGPIHRDQVNCSGAEAYLWDCPGLPGQHYCGHKEDAGAVCSEHQSWRLTGGADRCEGQVEVHFRGVWNTVCDSEWYPSEAKVLCQSLGCGTAVERPKGLPHSLSGRMYYSCNGEELTLSNCSWRFNNSNLCSQSLAARVLCSASR
modifications: N-linked glycans (endoglycosidase H sensitive; heterogeneity in mass caused by glycosylation; GlcNAc seen at N229 in the crystal)
notes: signal peptide in the construct; Deglycosylated with EndoHf only for crystallization; source: purified (NiNTA, Superdex200)
stoichiometry N [15]: 2

— article PMC4533223, “Structures of CD6 and Its Ligand CD166 Give Insight into Their Interaction” (Structure(London, England:1993), 2015)
